Laboratory results published in PMC9010301.

Target: Rad24-RFC clamp loader;9-1-1 clamp (Ddc1-Mec3-Rad17) (Saccharomyces cerevisiae;Saccharomyces …, UniProt P32641;P40348;P38629;P40339;P38251;Q08949;Q02574;P48581 …, |)
Assay: cryo-EM structure; closed 9-1-1 state; 0.5 mM ATPgS, 5 mM Mg acetate; 4 ATPgS and 1 ADP bound; 3.2 A; 1.8 uM Rad24-RFC, 2.2 uM 9-1-1, 2.7 uM DNA, 0.5 mM ATPgS, 5 mM Mg acetate; 9-1-1 + DNA 10 min at 30 C, then with loader on ice water 30 min (double-tailed) or 3

B1: double-tailed DNA (3'- and 5'-recessed ends) (dsDNA)
DNA 1: GCAGACACTACGAGTACATA
DNA 2: TTTTTTTTTTTATGTACTCGTAGTGTCTGCTTTTTTTTTT
modifications: 5'-OH
binding result: binds
